Laboratory results published in US20260139048A1 (NANJING LEGEND BIOTECH, published 2026).
Positions count from the first letter of the chain named. Blank lines part the entries; values can stand above or below the binder they belong to.

Legend:
[1] = biological target: T1, His-tagged human TIGIT (human, UniProt Q495A1 22-141); assay: SPR experiment 2, IgG from HEK293 supernatant captured
T1 construct: SPR analyte; also called human TIGIT protein; not shown: His tag
T1 sequence: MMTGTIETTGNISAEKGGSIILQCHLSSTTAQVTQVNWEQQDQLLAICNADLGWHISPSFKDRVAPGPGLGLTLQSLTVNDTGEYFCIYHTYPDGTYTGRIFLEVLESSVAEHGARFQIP

[2] = biological target: T2, TIGIT on TIGIT-over expressing NFAT-Luc/Jurkat effector cells (GenScript reporter cell line) (UniProt Q495A1 22-244, limits assumed); assay: cell-based or functional assay
T2 sequence (looked up): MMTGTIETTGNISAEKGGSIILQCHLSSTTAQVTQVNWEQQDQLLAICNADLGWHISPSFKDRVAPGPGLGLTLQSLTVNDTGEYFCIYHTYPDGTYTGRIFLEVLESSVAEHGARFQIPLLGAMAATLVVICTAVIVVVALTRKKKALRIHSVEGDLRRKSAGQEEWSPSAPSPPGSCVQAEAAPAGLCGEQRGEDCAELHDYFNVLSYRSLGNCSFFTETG

[3] = biological target: T3, human TIGIT expressed on CHO-K1 cells (human, UniProt Q495A1 22-244); assay: flow cytometry on CHO-K1 cells expressing human TIGIT
T3 construct: whole, on cells; also called human TIGIT-CHO-K1 cells; human TIGIT over-expressing cell line
T3 sequence (looked up): T2 sequence (looked up)

[4] = biological target: T4, cynomolgus TIGIT expressed on CHO-K1 cells (cynomolgus, UniProt A0A7N9I9V4 89-312); assay: flow cytometry on CHO-K1 cells expressing cynomolgus TIGIT
T4 construct: whole, on cells; also called cynomolgus TIGIT over-expressing cell line

[5] = biological target: T1, His-tagged human TIGIT; assay: SPR (Biacore T200), antibody captured, His-tagged TIGIT analyte
[6] = biological target: T5, His-tagged cynomolgus TIGIT (cynomolgus, UniProt A0A7N9I9V4 89-209); assay: as above
T5 construct: SPR analyte; also called cynomolgus TIGIT protein; not shown: His tag

[7] = biological target: T3, human TIGIT expressed on CHO-K1 cells; assay: flow cytometry competition: biotinylated CD155-Fc on human TIGIT-CHO-K1 cells

T4 sequence (A0A7N9I9V4 entry or part of it): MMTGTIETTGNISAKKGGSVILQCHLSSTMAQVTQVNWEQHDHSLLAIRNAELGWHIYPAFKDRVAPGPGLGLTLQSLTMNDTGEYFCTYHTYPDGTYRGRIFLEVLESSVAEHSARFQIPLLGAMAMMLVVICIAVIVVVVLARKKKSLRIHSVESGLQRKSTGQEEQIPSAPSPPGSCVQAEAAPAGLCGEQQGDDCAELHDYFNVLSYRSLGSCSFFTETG
T5 sequence (A0A7N9I9V4 entry or part of it): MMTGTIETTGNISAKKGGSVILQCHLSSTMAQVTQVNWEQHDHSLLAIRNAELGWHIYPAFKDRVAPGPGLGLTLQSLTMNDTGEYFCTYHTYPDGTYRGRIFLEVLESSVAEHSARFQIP

B2: huTIGIT-19-3 (antibody, human IgG1, kappa, V domains shown)
VH: QVQLVQSGAEVKKPGASVKVSCKASGYTFTRYSMYWVRQAPGQGLEWIAFIDAYSGGSTYAQKFQGKATLTVDTSISTAYMELSRLRSDDTAVYYCARGGDYGWYLGVWGQGTLVTVSS
VL: DIQMTQSPSSLSASVGDRVTITCRPSENIYTYLSWYQQKPGKAPKLLIYNAKSLPSGVPSRFSGSGSGTDFTLTISSLQPEDFATYYCQHHYGNPLTFGQGTKVEIKR
notes: Humanized IgG; also called 19VH4.M10 + 19VL1.M4
Bottom (RLU) [2]: 53700 RLU
EC50 [2]: 2650 pM
Top (RLU) [2]: 142000 RLU
EC50 [3]: 196 pM
EC50 [4]: 384 pM
Kd [5]: 280 pM
koff [5]: 0.0003 s⁻¹
kon [5]: 1.1e+06 M⁻¹ s⁻¹
Kd [6]: 54 pM
koff [6]: 4.1e-05 s⁻¹
kon [6]: 760000 M⁻¹ s⁻¹
IC50 [7]: 210 pM

B5: humanized TIGIT-19 antibody 19VH4.M7 + 19VL1 (antibody, V domains shown)
VH: B2 VH with A53P
VL: DIQMTQSPSSLSASVGDRVTITCRPSENIYTYLSWYQQKPGKAPKLLIYNAKTLPEGVPSRFSGSGSGTDFTLTISSLQPEDFATYYCQHHYGNPLTFGQGTKVEIK
notes: Full-length IgG, tested as HEK293 supernatant
Kd [1]: 300 pM
koff [1]: 0.00032 s⁻¹
kon [1]: 1.1e+06 M⁻¹ s⁻¹

B7: huTIGIT-19-4 (antibody, human IgG1, kappa, V domains shown)
VH: B2 VH
VL: B2 VL with P25A, E27Q, N28S, T31S
notes: Humanized IgG; also called 19VH4.M10 + 19VL1.M7
Bottom (RLU) [2]: 51300 RLU
EC50 [2]: 4280 pM
Top (RLU) [2]: 148000 RLU
EC50 [3]: 172 pM
EC50 [4]: 408 pM
Kd [5]: 490 pM
koff [5]: 0.00059 s⁻¹
kon [5]: 1.2e+06 M⁻¹ s⁻¹
Kd [6]: 87 pM
koff [6]: 7.3e-05 s⁻¹
kon [6]: 840000 M⁻¹ s⁻¹
IC50 [7]: 260 pM

B8: huTIGIT-19-2 (antibody, human IgG1, kappa, V domains shown)
VH: B2 VH with A61N, K63R, Q65R
VL: B2 VL with P25A, E27Q, N28S, T31S
notes: Humanized IgG; also called 19VH4.M9 + 19VL1.M7
Bottom (RLU) [2]: 55200 RLU
EC50 [2]: 2390 pM
Top (RLU) [2]: 155000 RLU
EC50 [3]: 256 pM
EC50 [4]: 440 pM
Kd [5]: 190 pM
koff [5]: 0.00021 s⁻¹
kon [5]: 1.1e+06 M⁻¹ s⁻¹
Kd [6]: 55 pM
koff [6]: 5.2e-05 s⁻¹
kon [6]: 950000 M⁻¹ s⁻¹
IC50 [7]: 240 pM

B11: humanized TIGIT-19 antibody 19VH4.M9 + 19VL1 (antibody, V domains shown)
VH: B2 VH with A61N, K63R, Q65R
VL: B5 VL
notes: as for B5
Kd [1]: 220 pM
koff [1]: 0.00023 s⁻¹
kon [1]: 1.1e+06 M⁻¹ s⁻¹

Other lines, results leading:

Kd [1]: 160 pM
koff [1]: 0.0002 s⁻¹
kon [1]: 1.3e+06 M⁻¹ s⁻¹
B1: humanized TIGIT-19 antibody 19VH4.M5 + 19VL1 (antibody, V domains shown)
VH: B2 VH with T28A, T30S, A53P, S55N
VL: B5 VL
notes: as for B5

Kd [1]: 23 pM
koff [1]: 2.7e-05 s⁻¹
kon [1]: 1.2e+06 M⁻¹ s⁻¹
B3: humanized TIGIT-19 antibody 19VH4 + 19VL1.M4 (antibody, V domains shown)
VH: B2 VH with T28A, T30S, A53P, S55N, A61N, K63R, Q65R
VL: B5 VL with T53S, E56S
notes: as for B5

Kd [1]: 120 pM
koff [1]: 0.00013 s⁻¹
kon [1]: 1.1e+06 M⁻¹ s⁻¹
B4: humanized TIGIT-19 antibody 19VH4.M4 + 19VL1 (antibody, V domains shown)
VH: B2 VH with T28A, T30S, A53P, A61N, K63R, Q65R
VL: B5 VL
notes: as for B5

Kd [1]: 81 pM
koff [1]: 8.7e-05 s⁻¹
kon [1]: 1.1e+06 M⁻¹ s⁻¹
B6: humanized TIGIT-19 antibody 19VH4 + 19VL1.M5 (antibody, V domains shown)
VH: B2 VH with T28A, T30S, A53P, S55N, A61N, K63R, Q65R
VL: B5 VL with P25A, E27Q, T53S, E56S
notes: as for B5

Kd [1]: 150 pM
koff [1]: 0.00015 s⁻¹
kon [1]: 1e+06 M⁻¹ s⁻¹
B9: humanized TIGIT-19 antibody 19VH4 + 19VL1.M6 (antibody, V domains shown)
VH: B2 VH with T28A, T30S, A53P, S55N, A61N, K63R, Q65R
VL: B5 VL with P25A, E27Q, T31S, T53S, E56S
notes: as for B5

Kd [1]: 130 pM
koff [1]: 0.00017 s⁻¹
kon [1]: 1.3e+06 M⁻¹ s⁻¹
B10: humanized TIGIT-19 antibody 19VH4 + 19VL1.M7 (antibody, V domains shown)
VH: B2 VH with T28A, T30S, A53P, S55N, A61N, K63R, Q65R
VL: B5 VL with P25A, E27Q, N28S, T31S, T53S, E56S
notes: as for B5
